Measurements: IntAct's records for PubMed 17141806

B1: Disintegrin and metalloproteinase domain-containing protein 22 (Homo sapiens), Q9P0K1-1 (parent)
chain: MQAAVAVSVPFLLLCVLGTCPPARCGQAGDASLMELEKRKENRFVERQSIVPLRLIYRSGGEDESRHDALDTRVRGDLGGPQLTHVDQASFQVDAFGTSFILDVVLNHDLLSSEYIERHIEHGGKTVEVKGGEHCYYQGHIRGNPDSFVALSTCHGLHGMFYDGNHTYLIEPEENDTTQEDFHFHSVYKSRLFEFSLDDLPSEFQQVNITPSKFILKPRPKRSKRQLRRYPRNVEEETKYIELMIVNDHLMFKKHRLSVVHTNTYAKSVVNMADLIYKDQLKTRIVLVAMETWATDNKFAISENPLITLREFMKYRRDFIKEKSDAVHLFSGSQFESSRSGAAYIGGICSLLKGGGVNEFGKTDLMAVTLAQSLAHNIGIISDKRKLASGECKCEDTWSGCIMGDTGYYLPKKFTQCNIEEYHDFLNSGGGACLFNKPSKLLDPPECGNGFIETGEECDCGTPAECVLEGAECCKKCTLTQDSQCSDGLCCKKCKFQPMGTVCREAVNDCDIRETCSGNSSQCAPNIHKMDGYSCDGVQGICFGGRCKTRDRQCKYIWGQKVTASDKYCYEKLNIEGTEKGNCGKDKDTWIQCNKRDVLCGYLLCTNIGNIPRLGELDGEITSTLVVQQGRTLNCSGGHVKLEEDVDLGYVEDGTPCGPQMMCLEHRCLPVASFNFSTCLSSKEGTICSGNGVCSNELKCVCNRHWIGSDCNTYFPHNDDAKTGITLSGNGVAGTNIIIGIIAGTILVLALILGITAWGYKNYREQRQLPQGDYVKKPGDGDSFYSDIPPGVSTNSASSSKKRSNGLSHSWSERIPDTKHISDICENGRPRSNSWQGNLGGNKKKIRGKRFRPRSNSTETLSPAKSPSSSTGSIASSRKYPYPMPPLPDEDKKVNRQSARLWETSI

Variants of: B1
Details: with hck_human HCK

| effect of a mutation on the interaction | Variant |
| --- | --- |
| decreasing interaction | Y882A |
